{
  "source": "patent US20200181597A1",
  "about": "“Composition and Application of Arginine-depleting Agents for Cancer, Obesity, Metabolic Disorders, and Related Complications and Comorbidities” (THE HONG KONG POLYTECHNIC UNIVERSITY, priority 2018, published 2020)",
  "key": {"[1]": {"tested_on": "mouse primary hepatocytes", "assay": "Mouse primary hepatocytes: MTT viability and pAkt Western blot", "format": "cell-based", "experimental": "Data are expressed as mean±SEM, n=5 for each group. […] (C) Western blot analysis of protein levels of phosphorylated Akt (pAkt) (marker of insulin signaling) in […] […] Lane 1: con; Lane 2: 5U/mL N-ABD094-rhArg (SEQ ID NO: 50); Lane 3: 100 nM insulin; Lane 4: 5U/mL N-ABD094-rhArg (SEQ ID NO: 50) +100 nM insulin.\nObesity is highly associated with insulin resistance. We therefore conducted both in vivo and in vitro study to determine whether N-ABD094-rhArg (SEQ ID NO: 50) treatment will have effects on insulin sensitivity. […] […] Cells were then collected for Western blot analysis to detect phosphorylated protein kinase B (pAkt), which is commonly used as marker of insulin signaling."}, "[2]": {"assay": "Prevention of HFD-induced obesity, male mice", "format": "in vivo, C57BL/6J male mice", "text": "To determine the efficacy of N-ABD094-rhArg (SEQ ID NO: 50) in preventing mice from diet-induced obesity and associated metabolic disorders, C57BL/6J male mice were fed a high-fat diet containing 60 kcal % fat (HFD; Research Diets, D12492) from 8 week old for 12 weeks, and concurrently received i.p. injection of 200-300U N-ABD094-rhArg (SEQ ID NO: 50) or saline as vehicle control at 7-day intervals. C57BL/6J mice fed a matched low fat diet containing 10 kcal % fat (LFD; Research Diets, D12450J) and injected with saline served as the lean control of various measurements.\nTwo cohorts, with n=5 in each group, had been separately conducted. Mice were housed in group of 5. Similar results were obtained in the two independent cohorts. Data of one cohort of mice were summarized in Examples 18-22."}, "[3]": {"assay": "Prevention of HFD-induced obesity, female mice", "format": "in vivo, C57BL/6J female mice", "details": "300U weekly", "text": "FIG. 21 illustrates that concurrent treatment with 300U N-ABD094-rhArg (SEQ ID, NO: 50) [HFD(rhArg) group] once a week could effectively prevent HFD-induced obesity in C57BL/6J female mice. (A) Bodyweight of mice fed a HFD from 8 week old for 12 weeks, and currently treated with N-ABD094-rhArg or vehicle. Vehicle-treated female mice fed a LFD served as the lean control [LFD(vehicle) group]. (B) Weight of fat pad at main visceral (perigonadal, perirenal and mesenteric) and subcutaneous (inguinal) depots. *P<0.05, one-way ANOVA followed by Fisher's LSD. Data are expressed as mean±SEM, n=5 for each group.\nFIG. 22 illustrates that concurrent treatment with 300U N-ABD094-rhArg (SEQ ID NO: 50) [HFD(rhArg) group] once a week could effectively prevent HFD-induced insulin resistance and glucose intolerance in C57BL/6J female mice. (A) Insulin tolerance test (ITT) conducted at 7 week after feeding a HFD. (B) Glucose tolerance test (GTT) conducted at 11 week after feeding a HFD. ITT and GTT results are expressed as area under the curve (AUC). *P<0.05, one-way ANOVA followed by Fisher's LSD. Data are expressed as mean±SEM, n=5 for each group.\nAfter confirming the anti-obesity effect of N-ABD094-rhArg (SEQ ID NO: 50) on male mice, the effect of N-ABD094-rhArg (SEQ ID NO: 50) on female mice (n=5 in each group) was studied to determine if there was any sex difference."}, "[4]": {"assay": "Treatment of pre-existing HFD-induced obesity (DIO), male mice", "format": "in vivo, C57BL/6J male mice", "text": "After confirming that concurrent treatment with N-ABD094-rhArg (SEQ ID NO: 50) can effectively prevent HFD-induced obesity and associated complications and comorbidities including insulin resistance, glucose intolerance, hyperglycemia, dyslipidemia, hepatic steatosis, chronic inflammation, and whitening of BAT, next, we studied the efficacy of N-ABD094-rhArg (SEQ ID NO: 50) in reducing obesity and reversing these disorders in mice with pre-existing diet-induced obesity (DIO). C57BL/6J male mice were fed a HFD from 5 week old for 12 weeks to induce obesity and associated complications and comorbidities. They were then stratified according to the bodyweight into 2 groups and treated with either 600-700U N-ABD094-rhArg (SEQ ID NO: 50) or saline as vehicle control at 7-day intervals for 12 weeks while continued to be fed the HFD. One group of mice were fed a matched low fat diet (LFD) and injected with saline throughout the study to serve as the lean control of various measurements. Two cohorts, with n=5 in each group, have been separately conducted. Mice were housed in groups of 5. Similar results were obtained in the two independent cohorts. Data of one cohort of mice were presented in Examples 23-28."}, "[5]": {"assay": "Enzyme kinetics after metal ion substitution", "format": "biochemical", "experimental": "Wild type arginase typically includes a Mn^2+ metal ion (D′Antonio & Christianson, 2011, Biochemistry, 50:8018-27). […] Purified N-ABD094-rhArg (SEQ ID NO: 50) in 20 mM Tris-HCl buffer (pH 7.4) was mixed with 20 mM of different divalent metal ions (Mn^2+, Ni^2+ or Co^2+), and was incubated at 52-55° C. for 15-60 min and then buffer exchanged with PBS buffer (pH 7.4).\nSamples were subjected to enzyme activity and enzyme kinetic studies to determine the specific activity and catalytic efficiency (kcat/Km). Samples were applied to inductively coupled plasma atomic emission spectroscopy (ICP-OES, Agilent 700 Series ICP optical emission spectrometer) for quantitative analysis of metal content."}},
  "data": [
    {"molecule": "N-ABD094-rhArg: albumin binding domain ABD094 fused N-terminally to recombinant human arginase I, SEQ ID NO: 50 (protein, Mn2+; N-ABD094-rhArg, Synthesized in the Lab) MHHHHHHDEAVDANSLAEAKEAANAELDSYGVSDFYKRLIDKAKTVEGVEALKDAILAALPSGSNNNNNNGSGGMSAKSRTIGIIGAPFSKGQPRGGVEEGPTVLRKAGLLEKLKEQECDVKDYGDLPFADIPNDSPFQIVKNPRSVGKASEQLAGKVAEVKKNGRISLVLGGDHSLAIGSISGHARVHPDLGVIWVDAHTDINTPLTTTSGNLHGQPVSFLLKELKGKIPDVPGFSWVTPCISAKDIVYIGLRDVDPGEHYILKTLGIKYFSMTEVDRLGIGKVMEETLSYLLGRKKRPIHLSFDVDGLDPSFTPATGTPVVGGLTYREGLYITEEIYKTGLLSGLDIMEVNPSLGKTPEEVTRTVNTAVAITLACFGLAREGNHKPIDYLNPPK", "values": [
      {"measurement": "phosphorylation of Akt upon insulin stimulation", "setting": "[1]; 5U/mL 24 hr, then 100 nM insulin 20 min", "result": "prominent increase"},
      {"measurement": "cell viability (MTT)", "setting": "[1]; 5U/mL, 48 hr", "result": "did not affect cell viability"},
      {"measurement": "HFD-induced downregulation of Acox1 in BAT", "setting": "[2]; 12 weeks HFD", "result": "block the downregulation"},
      {"measurement": "HFD-induced upregulation of adipogenic transcription factors and lipogenic enzymes in the liver", "setting": "[2]; 12 weeks HFD", "result": "significantly suppress"},
      {"measurement": "mRNA of Ucp1 and Pgc1α in BAT", "setting": "[2]; 12 weeks HFD", "result": "significantly upregulated"},
      {"measurement": "mRNA of proinflammatory adipokines (Mcp1, Il1b, Tnfa) in perigonadal WAT", "setting": "[2]; 12 weeks HFD", "result": "suppress the upregulation"},
      {"measurement": "serum levels of Mcp1 (ELISA)", "setting": "[2]; 12 weeks HFD", "result": "suppress an elevation"},
      {"measurement": "weight of kidney, pancreas and heart", "setting": "[2]; 12 weeks HFD", "result": "effectively prevent weight gain"},
      {"measurement": "weight gain and expansion of WAT caused by HFD", "setting": "[2]; 200-300U i.p. at 7-day intervals, 12 weeks, concurrent with HFD", "result": "effectively prevented"},
      {"measurement": "adipocyte hypertrophy in WAT (histology)", "setting": "[2]; 200-300U weekly, 12 weeks, HFD", "result": "prominently suppressed"},
      {"measurement": "mRNA of Pparg, Srebp1c, Acc1, Scd1 in gWAT", "setting": "[2]; 200-300U weekly, 12 weeks, HFD", "result": "dramatic downregulation"},
      {"measurement": "mRNA of Pparg, Srebp1c, Acc1, Scd1 in skeletal muscle", "setting": "[2]; 200-300U weekly, 12 weeks, HFD", "result": "significantly downregulated"},
      {"measurement": "development of hyperglycemia and hyperinsulinemia (fasting blood glucose, plasma insulin, HOMA-IR)", "setting": "[2]; concurrent weekly treatment, HFD", "result": "completely prevent"},
      {"measurement": "development of HFD-induced impaired glucose tolerance (GTT)", "setting": "[2]; concurrent weekly treatment, GTT at 5 and 10 weeks", "result": "completely prevent"},
      {"measurement": "development of HFD-induced insulin resistance (ITT)", "setting": "[2]; concurrent weekly treatment, ITT at 6 and 11 weeks", "result": "completely prevent"},
      {"measurement": "development of hyperleptinemia, hypercholesterolemia, hypertriglyceridemia, hyper-free fatty acidemia", "setting": "[2]; fasting plasma at 12 weeks of HFD", "result": "completely prevent"},
      {"measurement": "protection from weight gain and excessive accumulation of WAT", "setting": "[3]; 12 weeks", "result": "similarly effective"},
      {"measurement": "insulin sensitivity (ITT) and glucose tolerance (GTT)", "setting": "[3]; ITT week 7, GTT week 11", "result": "improve"},
      {"measurement": "HOMA-IR score", "setting": "[4]; 4 weeks after treatment (35.1 prior to treatment)", "result": 1.2},
      {"measurement": "Mcp1 and Tgfb expression in pancreas", "setting": "[4]; 12 weeks", "result": "significantly downregulate"},
      {"measurement": "Mcp1 expression in perigonadal WAT", "setting": "[4]; 12 weeks", "result": "significantly downregulated"},
      {"measurement": "WAT within the pancreas and heart (histology)", "setting": "[4]; 12 weeks", "result": "prominent reduction"},
      {"measurement": "amount of collagen fibres in kidney (Sirius red)", "setting": "[4]; 12 weeks", "result": "prominently reduced"},
      {"measurement": "anti-inflammatory genes (Il10, Il22, Infg) in liver", "setting": "[4]; 12 weeks", "result": "markedly upregulate"},
      {"measurement": "lipid droplets in liver (oil red O)", "setting": "[4]; 12 weeks", "result": "dramatic clearance"},
      {"measurement": "liver triglyceride concentrations", "setting": "[4]; 12 weeks", "result": "reduced to a level similar to the lean control"},
      {"measurement": "plasma ALT and AST concentrations", "setting": "[4]; 12 weeks", "result": "comparable to the lean control"},
      {"measurement": "profibrotic gene Col1a1 in kidney", "setting": "[4]; 12 weeks", "result": "greatly suppressed"},
      {"measurement": "profibrotic gene Tgfb in liver", "setting": "[4]; 12 weeks", "result": "restored to a level similar to the lean control"},
      {"measurement": "proinflammatory genes (Il1a, Il1b) in liver", "setting": "[4]; 12 weeks", "result": "significantly downregulate"},
      {"measurement": "proinflammatory genes (Mcp1, Tnfa, Il1b) in kidney, downregulated to", "setting": "[4]; 12 weeks", "result": "levels similar to the lean control"},
      {"measurement": "serum concentrations of Mcp1", "setting": "[4]; 12 weeks", "result": "corrected to a level similar to the lean control mice"},
      {"measurement": "triglyceride concentrations in kidney, pancreas, heart and skeletal muscle", "setting": "[4]; 12 weeks", "result": "restored a level similar to the lean control"},
      {"measurement": "vacuoles in renal tubules and lipids in glomeruli (histology)", "setting": "[4]; 12 weeks", "result": "marked reduction"},
      {"measurement": "weight of kidney, pancreas and heart", "setting": "[4]; 12 weeks, to a level similar to lean control", "result": "significantly reduce"},
      {"measurement": "reduction of bodyweight", "setting": "[4]; 600-700U at 7-day intervals, by 5 weeks, HFD continued", "result": "over 30%"},
      {"measurement": "fasting plasma leptin and total cholesterol levels", "setting": "[4]; 600-700U weekly", "result": "markedly reduced to normal levels"},
      {"measurement": "adipocyte size in WAT (histology)", "setting": "[4]; 600-700U weekly, 12 weeks", "result": "prominent diminution"},
      {"measurement": "weight of fat pad at visceral and subcutaneous depots", "setting": "[4]; 600-700U weekly, 12 weeks", "result": "significantly reduced"},
      {"measurement": "mRNA levels of lipogenesis related genes in liver", "setting": "[4]; 600U weekly, 12 weeks", "result": "significantly downregulated"},
      {"measurement": "glucose tolerance (GTT)", "setting": "[4]; by 3 weeks of treatment", "result": "significant improvement"},
      {"measurement": "fasting blood glucose and plasma insulin", "setting": "[4]; by 4 weeks of treatment", "result": "restored to levels similar to the lean control mice"},
      {"measurement": "insulin sensitivity (ITT)", "setting": "[4]; by 4 weeks of treatment, comparable to lean control", "result": "marked increase"},
      {"measurement": "glucose tolerance (GTT)", "setting": "[4]; by 7 weeks of treatment, level similar to lean control", "result": "fully restored"},
      {"measurement": "Km", "setting": "[5]", "result": "1370 to 1890", "unit": "µM"},
      {"measurement": "kcat", "setting": "[5]", "result": "82 to 98", "unit": "s⁻¹"}
    ]}
  ]
}
